In assay [1] the target is Hsp70 (UniProt P11142).
For assay [2], the target named is Hsp70 (UniProt P11142). This is another data set of the same source.
Assay [3] has as its target Hsp70 (UniProt P11142). The source holds these as a separate data set.
In assay [4] the target is Hsp70 T204A,S494C-AF488 (C267A, C574A, C603A). In words: fluorescence polarisation; steady-state fluorescence anisotropy; 100 nM Hsp70 T204A,S494C-AF488 titrated with 0-1.0 mM full-length DNAJB6 WT or mutants; 20 min at 37 °C; 50 mM HEPES pH 8.0, 200 mM KCl, 10 mM MgCl, 2 mM ATP; one-site binding model. For orientation: Polarisation of emitted light reports the rotation of a fluorescent probe.

In assay [5] the target is Hsp70 (UniProt P11142). The source holds these as a separate data set.

pKd: −log10 of the molar value. A value given as a limit tells only on which side of the number the result lay.

The results in this text go back to PMC10624832.

DNAJB6^JD (res. 1-72), sequence (O75190 1-72): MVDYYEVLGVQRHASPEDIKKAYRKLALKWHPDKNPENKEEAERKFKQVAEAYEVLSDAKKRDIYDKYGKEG
DNAJB6^WT (isoform b), full-length oligomeric, O75190-2 1-241 (natural protein), sequence (O75190 other isoform, or with tags, fused parts or gaps): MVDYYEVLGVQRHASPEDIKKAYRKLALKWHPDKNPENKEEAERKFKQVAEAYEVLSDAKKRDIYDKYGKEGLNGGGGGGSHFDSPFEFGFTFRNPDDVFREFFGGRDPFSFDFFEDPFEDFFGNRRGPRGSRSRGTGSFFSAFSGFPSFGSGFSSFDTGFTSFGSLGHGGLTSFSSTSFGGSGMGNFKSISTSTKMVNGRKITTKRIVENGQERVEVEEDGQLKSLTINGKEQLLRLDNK
DNAJB6^JD-GF WT (res. 1-109), sequence (O75190 1-109): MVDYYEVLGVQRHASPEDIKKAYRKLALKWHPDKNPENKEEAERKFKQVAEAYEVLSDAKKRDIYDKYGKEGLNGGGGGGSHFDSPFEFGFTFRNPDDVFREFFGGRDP

Substance “DNAJB6^JD (res. 1-72) (from UniProt O75190 1-72) (domain or fragment)” came in with a steady-state ATPase activity of Hsp70 (initial rate of phosphate release, PBP fluorescence); 0.25 μM Hsp70, 0.25 μM DNAJB6 variant in the assay with Hsp70 [1] of 1.74 nM Pi min^−1.

As to “DNAJB6^JD-GF A50V (from UniProt O75190 1-109) (domain or fragment)”, the steady-state ATPase activity of Hsp70 (initial rate of phosphate release); roughly 6-8-fold increase with Hsp70 [2] is 1.24 nM Pi min^−1.

For “DNAJB6^JD-GF E54A (from UniProt O75190 1-109) (domain or fragment)”, the steady-state ATPase activity of Hsp70, fold enhancement of ATP hydrolysis rate with Hsp70 [2] was 4 fold.

For the substance “DNAJB6^JD-GF F100V (from UniProt O75190 1-109) (domain or fragment)”, the steady-state ATPase activity of Hsp70 (initial rate of phosphate release); roughly 6-8-fold increase with Hsp70 [2] stood at 1.64 nM Pi min^−1.

Regarding “DNAJB6^JD-GF P96R (from UniProt O75190 1-109) (domain or fragment)”, the steady-state ATPase activity of Hsp70, fold enhancement of ATP hydrolysis rate in the assay with Hsp70 [2] is 4 fold.

Consider “DNAJB6^JD-GF WT (res. 1-109) (from UniProt O75190 1-109) (domain or fragment)”, for which, in the assay with Hsp70 [3], the steady-state ATPase activity of Hsp70, fold activation over Hsp70 alone was determined as 1.6 fold.

What is called pKd is the negative decadic logarithm of the Kd, by convention in mol/L. High values mean a small Kd, low ones a large Kd. In assay [4], “DNAJB6^WT (isoform b), full-length oligomeric (from UniProt O75190-2 1-241) (natural protein)” gave a pKd of under 2.00.

“DNAJB6^WT (isoform b), full-length oligomeric, O75190-2 1-241 (natural protein)”: in the assay with Hsp70 [5], the steady-state ATPase activity of Hsp70 with full-length oligomeric DNAJB6, fold activation came to 1.4 fold.

Turning to “full-length DNAJB6 A50V (from UniProt O75190-2 1-241) (natural protein)”, the pKd in assay [4] was 5.05.

For “full-length DNAJB6 F91I (from UniProt O75190-2 1-241) (natural protein)”, the negative-log Kd (pKd) in assay [4] was 3.22.

With “full-length DNAJB6 F93L (from UniProt O75190-2 1-241) (natural protein)”, the pKd in assay [4] was 3.54.

As for “full-length DNAJB6 F100V (from UniProt O75190-2 1-241) (natural protein)”, the negative logarithm of the Kd (pKd) in assay [4] was 5.82.

In assay [4], “full-length DNAJB6 P96R (from UniProt O75190-2 1-241) (natural protein)” gave a pKd of 4.33.
